Laboratory results reported in publication PMC6167383, “Regulatory control of DNA end resection by Sae2 phosphorylation” (Nature Communications, 2018).
Numbering of substitutions follows the chain as printed. In names and notes the source's numbering stands. Values belong to the binder of their own block, whether it stands above or below them.

How the values were obtained:
[1] = biological target: the molecule itself; assay: SEC; Superose 6 10/300 GL, 50 mM Tris-HCl pH 7.5, 150 mM NaCl, 10% glycerol, 0.5 mM β-mercaptoethanol, 4 °C; ~75 μg of the Sae2 variant, mock-treated or treated with λ phosphatase for 90 min at 30 °C before loading; absorbance at 215 nm
[2] = biological target: T1, pSae2 λ (dephosphorylated) (Saccharomyces cerevisiae, UniProt P46946 1-345); assay: EMSA; lambda phosphatase-treated; 2 mM Mg2+; 25 mM Tris-acetate pH 7.5, 1 mM DTT, 2 mM Mg acetate, 0.1 mg/ml BSA, 1 nM DNA, 30 C; 1 mM ATP with MRX; 30 nM streptavidin where indicated; native PAGE in TBE; conditions: protein: recombinant; tags: C-terminal His; N-terminal MBP cleaved with PreScission; label: 3' 32P-cordycepin; blunt before 3' labeling
T1 sequence: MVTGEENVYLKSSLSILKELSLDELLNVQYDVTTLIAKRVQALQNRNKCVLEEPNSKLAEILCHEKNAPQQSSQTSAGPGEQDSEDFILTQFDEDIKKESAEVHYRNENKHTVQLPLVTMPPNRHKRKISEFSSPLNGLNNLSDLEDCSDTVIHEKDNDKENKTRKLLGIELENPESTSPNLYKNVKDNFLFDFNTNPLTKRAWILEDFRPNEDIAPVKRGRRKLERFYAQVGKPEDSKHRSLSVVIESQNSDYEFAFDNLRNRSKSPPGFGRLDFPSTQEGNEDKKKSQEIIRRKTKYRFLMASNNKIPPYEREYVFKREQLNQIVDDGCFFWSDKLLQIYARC

[3] = biological target: T2, S. cerevisiae Mre11-Rad50-Xrs2 complex (S. cerevisiae, UniProt P32829 1-692; P12753 1-1312; P33301 1-854); assay: pull-down; MBP-tagged Sae2 on amylose resin (mock-treated or λ phosphatase-treated on the resin), 5 μg recombinant MRX, 1 h at 4 °C; wash 50 mM Tris-HCl pH 7.5, 2 mM EDTA, 80 mM NaCl, 0.2% NP40; eluted with 20 mM maltose; silver staining; conditions: both partners purified
T2 construct: Mre11, S. cerevisiae; Rad50, S. cerevisiae; Xrs2, S. cerevisiae; also called MRX; MRX complex; copies: + +
T2 sequence (P32829 whole entry, chain 1 of 3): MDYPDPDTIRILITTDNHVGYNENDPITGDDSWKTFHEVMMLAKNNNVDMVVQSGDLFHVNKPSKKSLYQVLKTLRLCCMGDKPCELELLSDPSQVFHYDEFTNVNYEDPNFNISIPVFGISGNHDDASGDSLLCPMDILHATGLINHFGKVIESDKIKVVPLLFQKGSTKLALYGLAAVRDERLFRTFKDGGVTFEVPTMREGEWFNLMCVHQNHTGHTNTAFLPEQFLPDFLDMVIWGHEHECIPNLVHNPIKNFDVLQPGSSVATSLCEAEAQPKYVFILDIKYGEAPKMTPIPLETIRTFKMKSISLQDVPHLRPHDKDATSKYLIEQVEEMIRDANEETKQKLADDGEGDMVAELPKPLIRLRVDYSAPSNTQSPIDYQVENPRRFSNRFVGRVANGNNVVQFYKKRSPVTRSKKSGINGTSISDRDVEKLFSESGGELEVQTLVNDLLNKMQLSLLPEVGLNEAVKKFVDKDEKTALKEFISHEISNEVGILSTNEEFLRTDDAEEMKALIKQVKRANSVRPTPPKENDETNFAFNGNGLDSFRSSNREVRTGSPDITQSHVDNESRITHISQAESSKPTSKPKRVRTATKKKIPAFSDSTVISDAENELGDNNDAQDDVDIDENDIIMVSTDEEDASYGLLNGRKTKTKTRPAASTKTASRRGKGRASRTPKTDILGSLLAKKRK
T2 sequence (P12753 whole entry, chain 2 of 3): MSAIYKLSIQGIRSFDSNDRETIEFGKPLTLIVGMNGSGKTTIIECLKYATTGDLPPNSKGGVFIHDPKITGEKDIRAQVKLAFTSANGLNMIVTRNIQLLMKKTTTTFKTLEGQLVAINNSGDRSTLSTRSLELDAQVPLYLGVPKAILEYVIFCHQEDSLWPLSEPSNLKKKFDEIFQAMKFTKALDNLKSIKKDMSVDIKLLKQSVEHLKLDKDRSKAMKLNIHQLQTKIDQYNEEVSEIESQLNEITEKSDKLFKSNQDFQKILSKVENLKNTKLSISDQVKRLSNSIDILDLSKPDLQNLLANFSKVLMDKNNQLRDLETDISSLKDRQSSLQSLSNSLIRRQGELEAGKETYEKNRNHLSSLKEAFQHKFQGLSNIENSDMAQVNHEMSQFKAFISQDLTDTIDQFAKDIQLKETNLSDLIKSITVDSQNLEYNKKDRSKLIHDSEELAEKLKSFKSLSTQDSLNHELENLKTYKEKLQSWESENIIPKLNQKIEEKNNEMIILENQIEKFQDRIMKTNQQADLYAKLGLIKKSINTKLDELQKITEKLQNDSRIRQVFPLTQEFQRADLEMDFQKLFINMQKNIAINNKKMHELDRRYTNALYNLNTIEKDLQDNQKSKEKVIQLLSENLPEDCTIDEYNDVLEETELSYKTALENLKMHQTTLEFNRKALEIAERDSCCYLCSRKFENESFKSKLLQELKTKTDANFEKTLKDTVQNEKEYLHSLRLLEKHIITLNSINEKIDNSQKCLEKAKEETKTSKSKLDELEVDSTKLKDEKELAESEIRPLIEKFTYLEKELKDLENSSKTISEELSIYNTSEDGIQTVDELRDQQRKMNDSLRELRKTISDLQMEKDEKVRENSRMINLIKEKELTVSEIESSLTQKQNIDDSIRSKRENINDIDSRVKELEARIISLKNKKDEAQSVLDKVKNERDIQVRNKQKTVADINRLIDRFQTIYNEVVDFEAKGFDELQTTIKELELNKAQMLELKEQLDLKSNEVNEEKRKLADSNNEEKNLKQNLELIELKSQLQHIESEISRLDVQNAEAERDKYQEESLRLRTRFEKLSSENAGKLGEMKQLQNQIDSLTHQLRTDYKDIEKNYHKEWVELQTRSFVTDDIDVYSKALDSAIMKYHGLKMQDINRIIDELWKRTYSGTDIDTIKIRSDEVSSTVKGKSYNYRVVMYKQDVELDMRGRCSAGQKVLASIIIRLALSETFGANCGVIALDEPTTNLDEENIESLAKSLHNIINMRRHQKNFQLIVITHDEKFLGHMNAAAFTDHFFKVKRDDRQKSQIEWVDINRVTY
T2 sequence (P33301 whole entry, chain 3 of 3): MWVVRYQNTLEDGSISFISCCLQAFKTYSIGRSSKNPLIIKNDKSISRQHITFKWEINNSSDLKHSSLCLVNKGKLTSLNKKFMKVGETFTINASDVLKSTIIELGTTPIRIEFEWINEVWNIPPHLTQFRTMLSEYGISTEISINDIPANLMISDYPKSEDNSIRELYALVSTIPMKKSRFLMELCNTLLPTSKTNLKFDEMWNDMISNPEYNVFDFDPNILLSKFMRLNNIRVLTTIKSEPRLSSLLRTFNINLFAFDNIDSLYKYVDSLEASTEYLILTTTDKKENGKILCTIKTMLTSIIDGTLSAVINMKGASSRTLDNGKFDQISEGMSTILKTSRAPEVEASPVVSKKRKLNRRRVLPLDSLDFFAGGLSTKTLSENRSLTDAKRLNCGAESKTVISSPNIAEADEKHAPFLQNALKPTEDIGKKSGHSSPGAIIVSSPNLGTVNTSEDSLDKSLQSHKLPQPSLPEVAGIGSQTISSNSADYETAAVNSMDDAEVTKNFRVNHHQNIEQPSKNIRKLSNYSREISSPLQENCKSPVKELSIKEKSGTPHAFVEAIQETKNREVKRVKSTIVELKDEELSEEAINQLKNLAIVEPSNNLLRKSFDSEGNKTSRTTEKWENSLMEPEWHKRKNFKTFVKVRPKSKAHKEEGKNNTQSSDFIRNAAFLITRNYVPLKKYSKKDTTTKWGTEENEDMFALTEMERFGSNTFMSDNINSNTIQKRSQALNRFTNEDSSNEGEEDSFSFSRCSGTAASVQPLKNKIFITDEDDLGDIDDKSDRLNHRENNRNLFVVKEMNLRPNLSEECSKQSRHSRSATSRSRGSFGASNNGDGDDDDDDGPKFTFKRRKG

[4] = biological target: the molecule itself; assay: atomic force microscopy (particle volume analysis); 50 nM pSae2 in 40 mM Hepes pH 7, 5 mM MgCl2, 25 mM NaCl, 0.1 mM TCEP deposited on mica, imaged in air, without DNA; molecular weight from a published standard curve

B1: pSae2 ΔC95, lacking 95 C-terminal residues (domain or fragment, S. cerevisiae, UniProt P46946 1-250, looked up)
chain: MVTGEENVYLKSSLSILKELSLDELLNVQYDVTTLIAKRVQALQNRNKCVLEEPNSKLAEILCHEKNAPQQSSQTSAGPGEQDSEDFILTQFDEDIKKESAEVHYRNENKHTVQLPLVTMPPNRHKRKISEFSSPLNGLNNLSDLEDCSDTVIHEKDNDKENKTRKLLGIELENPESTSPNLYKNVKDNFLFDFNTNPLTKRAWILEDFRPNEDIAPVKRGRRKLERFYAQVGKPEDSKHRSLSVVIESQ
modifications: phosphorylated (named pSae2; sites not listed)
notes: Sae2, S. cerevisiae, lacking the 95 C-terminal residues; source: Sf9, purified as pSae2; not shown: MBP, N-terminal, cleaved
binding result [1]: binds

B2: 100 bp dsDNA (Bio100/Bio100c) (dsDNA)
DNA 1: GTAAGTGCCGCGGTGCGGGTGCCAGGGCGTGCCCTTGGGCTCCCCGGGCGCGTACTCCACCTCATAATCTTCTGCCATGGTCGTAGCAGCCTCCTGCATC
DNA 2: GATGCAGGAGGCTGCTACGACCATGGCAGAAGATTATGAGGTGGAGTACGCGCCCGGGGAGCCCAAGGGCACGCCCTGGCACCCGCACCGCGGCACTTAC
modifications: internal biotin-T in Bio100 (bold T; exact position not visible in the text)
binding result [2]: binds

B3: pSae2 S267A, expressed in the presence of phosphatase inhibitors (natural protein, S. cerevisiae, UniProt P46946 1-345, looked up)
chain: T1 sequence with S267A
modifications: phosphorylated (prepared with phosphatase inhibitors; sites not listed)
notes: Sae2, S. cerevisiae, point mutant made in the pFB-MBP-Sae2-his plasmid; not shown: MBP, N-terminal, cleaved
binding result [1]: binds

B4: pSae2 S267E phosphomimicking variant, expressed in the presence of phosphatase inhibitors (natural protein, S. cerevisiae, UniProt P46946 1-345, looked up)
chain: T1 sequence with S267E
modifications: phosphorylated (prepared with phosphatase inhibitors; sites not listed)
notes: Sae2, S. cerevisiae, full-length polypeptide with S267E; not shown: MBP, N-terminal, cleaved
binding result [1]: binds

binding result [3]: binds
B5: full-length recombinant MBP-tagged Sae2 dephosphorylated with λ phosphatase on amylose resin (natural protein, S. cerevisiae, UniProt P46946 1-345, looked up)
chain: T1 sequence
modifications: dephosphorylated with λ phosphatase on the resin
notes: Sae2, S. cerevisiae, full-length polypeptide; also called non-phosphorylated MBP-tagged Sae2; not shown: MBP, N-terminal, kept

B6: hyperphosphorylated recombinant Sae2 (pSae2), expressed and purified with phosphatase inhibitors (natural protein, S. cerevisiae, UniProt P46946 1-345, looked up)
chain: T1 sequence
modifications: hyperphosphorylated (phosphatase inhibitors in culture and lysis buffer); estimate of 17 phosphorylation sites; sites not listed in the text
notes: Sae2, S. cerevisiae, full-length polypeptide (ends at residue 345 by the legend's 170-345); Tetramer by AFM volume analysis; also called phosphorylated Sae2; wt pSae2; not shown: MBP, N-terminal, cleaved
stoichiometry N [4]: 4

B7: pSae2 S267E dephosphorylated with λ phosphatase (natural protein, S. cerevisiae, UniProt P46946 1-345, looked up)
chain: T1 sequence with S267E
modifications: dephosphorylated with λ phosphatase
notes: Sae2, S. cerevisiae, full-length polypeptide with S267E; also called pSae2 S267E λ; not shown: MBP, N-terminal, cleaved
binding result [1]: binds

binding result [3]: binds
B8: full-length phosphorylated recombinant MBP-tagged pSae2 (mock-treated), on amylose resin (natural protein, S. cerevisiae, UniProt P46946 1-345, looked up)
chain: T1 sequence
modifications: phosphorylated (phosphatase inhibitors; mock-treated); sites not listed
notes: Sae2, S. cerevisiae, full-length polypeptide; The MBP tag was cleaved off only after elution of the complexes; also called MBP-tagged Sae2; MBP-Sae2-His; not shown: MBP, N-terminal, kept
